Starred links: 1 amine or outer side, 2 acyl side, 3 side chain; linkers in the order of their positions; H or OH if unused. Non-standard residues stand in square brackets, D forms with d. Groups on a side chain read outwards from the residue. No end group written: not given here. *: point of attachment. C18 diacid = O=C(O)CCCCCCCCCCCCCCCCC(=O)*; γGlu = O=C(O)[C@H](CCC(=O)[*:2])N[*:1]; αMeF = C[C@](N)(Cc1ccccc1)C(=O)O; AEEA = NCCOCCOCC(=O)O; Aib = CC(C)(N)C(=O)O
B1: Peptide 142 (peptide)
peptide: H[Aib]QGTFTSDVSK[αMeF]LDSK([AEEA-AEEA-γGlu-C18 diacid])RARDFVAWLLE[Aib]G-OH
modifications: N-terminus assumed
SMILES: CC(C)C[C@H](NC(=O)[C@H](Cc1c[nH]c2ccccc12)NC(=O)[C@H](C)NC(=O)[C@@H](NC(=O)[C@H](Cc1ccccc1)NC(=O)[C@H](CC(=O)O)NC(=O)[C@H](CCCNC(=N)N)NC(=O)[C@H](C)NC(=O)[C@H](CCCNC(=N)N)NC(=O)[C@H](CCCCNC(=O)COCCOCCNC(=O)COCCOCCNC(=O)CC[C@H](NC(=O)CCCCCCCCCCCCCCCCC(=O)O)C(=O)O)NC(=O)[C@H](CO)NC(=O)[C@H](CC(=O)O)NC(=O)[C@H](CC(C)C)NC(=O)[C@](C)(Cc1ccccc1)NC(=O)[C@H](CCCCN)NC(=O)[C@H](CO)NC(=O)[C@@H](NC(=O)[C@H](CC(=O)O)NC(=O)[C@H](CO)NC(=O)[C@@H](NC(=O)[C@H](Cc1ccccc1)NC(=O)[C@@H](NC(=O)CNC(=O)[C@H](CCC(N)=O)NC(=O)C(C)(C)NC(=O)[C@@H](N)Cc1c[nH]cn1)[C@@H](C)O)[C@@H](C)O)C(C)C)C(C)C)C(=O)N[C@@H](CC(C)C)C(=O)N[C@@H](CCC(=O)O)C(=O)NC(C)(C)C(=O)NCC(=O)O
B2: Peptide 143 (peptide)
peptide: H[Aib]QGTFTSDVSK[αMeF]LDSK([AEEA-AEEA-γGlu-C18 diacid])RARDFVQWLLE[Aib]G-OH
modifications: N-terminus assumed
SMILES: CC(C)C[C@H](NC(=O)[C@H](Cc1c[nH]c2ccccc12)NC(=O)[C@H](CCC(N)=O)NC(=O)[C@@H](NC(=O)[C@H](Cc1ccccc1)NC(=O)[C@H](CC(=O)O)NC(=O)[C@H](CCCNC(=N)N)NC(=O)[C@H](C)NC(=O)[C@H](CCCNC(=N)N)NC(=O)[C@H](CCCCNC(=O)COCCOCCNC(=O)COCCOCCNC(=O)CC[C@H](NC(=O)CCCCCCCCCCCCCCCCC(=O)O)C(=O)O)NC(=O)[C@H](CO)NC(=O)[C@H](CC(=O)O)NC(=O)[C@H](CC(C)C)NC(=O)[C@](C)(Cc1ccccc1)NC(=O)[C@H](CCCCN)NC(=O)[C@H](CO)NC(=O)[C@@H](NC(=O)[C@H](CC(=O)O)NC(=O)[C@H](CO)NC(=O)[C@@H](NC(=O)[C@H](Cc1ccccc1)NC(=O)[C@@H](NC(=O)CNC(=O)[C@H](CCC(N)=O)NC(=O)C(C)(C)NC(=O)[C@@H](N)Cc1c[nH]cn1)[C@@H](C)O)[C@@H](C)O)C(C)C)C(C)C)C(=O)N[C@@H](CC(C)C)C(=O)N[C@@H](CCC(=O)O)C(=O)NC(C)(C)C(=O)NCC(=O)O
B3: Peptide 144 (peptide)
peptide: H[Aib]QGTFTSDVSK[αMeF]LDSK([γGlu-γGlu-AEEA-AEEA-γGlu-γGlu-C18 diacid])RARDFVRWLLE[Aib]G-OH
modifications: N-terminus assumed
SMILES: CC(C)C[C@H](NC(=O)[C@H](Cc1c[nH]c2ccccc12)NC(=O)[C@H](CCCNC(=N)N)NC(=O)[C@@H](NC(=O)[C@H](Cc1ccccc1)NC(=O)[C@H](CC(=O)O)NC(=O)[C@H](CCCNC(=N)N)NC(=O)[C@H](C)NC(=O)[C@H](CCCNC(=N)N)NC(=O)[C@H](CCCCNC(=O)CC[C@H](NC(=O)CC[C@H](NC(=O)COCCOCCNC(=O)COCCOCCNC(=O)CC[C@H](NC(=O)CC[C@H](NC(=O)CCCCCCCCCCCCCCCCC(=O)O)C(=O)O)C(=O)O)C(=O)O)C(=O)O)NC(=O)[C@H](CO)NC(=O)[C@H](CC(=O)O)NC(=O)[C@H](CC(C)C)NC(=O)[C@](C)(Cc1ccccc1)NC(=O)[C@H](CCCCN)NC(=O)[C@H](CO)NC(=O)[C@@H](NC(=O)[C@H](CC(=O)O)NC(=O)[C@H](CO)NC(=O)[C@@H](NC(=O)[C@H](Cc1ccccc1)NC(=O)[C@@H](NC(=O)CNC(=O)[C@H](CCC(N)=O)NC(=O)C(C)(C)NC(=O)[C@@H](N)Cc1c[nH]cn1)[C@@H](C)O)[C@@H](C)O)C(C)C)C(C)C)C(=O)N[C@@H](CC(C)C)C(=O)N[C@@H](CCC(=O)O)C(=O)NC(C)(C)C(=O)NCC(=O)O
B4: Peptide 145 (peptide)
peptide: H[Aib]QGTFTSDVSK[αMeF]LDSK([AEEA-AEEA-γGlu-C18 diacid])RAQDFVRWLASRGI-OH
modifications: N-terminus assumed
SMILES: CC[C@H](C)[C@H](NC(=O)CNC(=O)[C@H](CCCNC(=N)N)NC(=O)[C@H](CO)NC(=O)[C@H](C)NC(=O)[C@H](CC(C)C)NC(=O)[C@H](Cc1c[nH]c2ccccc12)NC(=O)[C@H](CCCNC(=N)N)NC(=O)[C@@H](NC(=O)[C@H](Cc1ccccc1)NC(=O)[C@H](CC(=O)O)NC(=O)[C@H](CCC(N)=O)NC(=O)[C@H](C)NC(=O)[C@H](CCCNC(=N)N)NC(=O)[C@H](CCCCNC(=O)COCCOCCNC(=O)COCCOCCNC(=O)CC[C@H](NC(=O)CCCCCCCCCCCCCCCCC(=O)O)C(=O)O)NC(=O)[C@H](CO)NC(=O)[C@H](CC(=O)O)NC(=O)[C@H](CC(C)C)NC(=O)[C@](C)(Cc1ccccc1)NC(=O)[C@H](CCCCN)NC(=O)[C@H](CO)NC(=O)[C@@H](NC(=O)[C@H](CC(=O)O)NC(=O)[C@H](CO)NC(=O)[C@@H](NC(=O)[C@H](Cc1ccccc1)NC(=O)[C@@H](NC(=O)CNC(=O)[C@H](CCC(N)=O)NC(=O)C(C)(C)NC(=O)[C@@H](N)Cc1c[nH]cn1)[C@@H](C)O)[C@@H](C)O)C(C)C)C(C)C)C(=O)O
B5: Peptide 146 (peptide)
peptide: H[Aib]QGTFTSDVSK[αMeF]LDSK([AEEA-AEEA-γGlu-C18 diacid])RAQDFVRWLASR-OH
modifications: N-terminus assumed
SMILES: CC(C)C[C@H](NC(=O)[C@H](Cc1c[nH]c2ccccc12)NC(=O)[C@H](CCCNC(=N)N)NC(=O)[C@@H](NC(=O)[C@H](Cc1ccccc1)NC(=O)[C@H](CC(=O)O)NC(=O)[C@H](CCC(N)=O)NC(=O)[C@H](C)NC(=O)[C@H](CCCNC(=N)N)NC(=O)[C@H](CCCCNC(=O)COCCOCCNC(=O)COCCOCCNC(=O)CC[C@H](NC(=O)CCCCCCCCCCCCCCCCC(=O)O)C(=O)O)NC(=O)[C@H](CO)NC(=O)[C@H](CC(=O)O)NC(=O)[C@H](CC(C)C)NC(=O)[C@](C)(Cc1ccccc1)NC(=O)[C@H](CCCCN)NC(=O)[C@H](CO)NC(=O)[C@@H](NC(=O)[C@H](CC(=O)O)NC(=O)[C@H](CO)NC(=O)[C@@H](NC(=O)[C@H](Cc1ccccc1)NC(=O)[C@@H](NC(=O)CNC(=O)[C@H](CCC(N)=O)NC(=O)C(C)(C)NC(=O)[C@@H](N)Cc1c[nH]cn1)[C@@H](C)O)[C@@H](C)O)C(C)C)C(C)C)C(=O)N[C@@H](C)C(=O)N[C@@H](CO)C(=O)N[C@@H](CCCNC(=N)N)C(=O)O
B6: Peptide 147 (peptide)
peptide: H[Aib]QGTFTSDVSK[αMeF]LDSK([AEEA-AEEA-γGlu-C18 diacid])RAQDFVRWLEA[Aib]G-OH
modifications: N-terminus assumed
SMILES: CC(C)C[C@H](NC(=O)[C@H](Cc1c[nH]c2ccccc12)NC(=O)[C@H](CCCNC(=N)N)NC(=O)[C@@H](NC(=O)[C@H](Cc1ccccc1)NC(=O)[C@H](CC(=O)O)NC(=O)[C@H](CCC(N)=O)NC(=O)[C@H](C)NC(=O)[C@H](CCCNC(=N)N)NC(=O)[C@H](CCCCNC(=O)COCCOCCNC(=O)COCCOCCNC(=O)CC[C@H](NC(=O)CCCCCCCCCCCCCCCCC(=O)O)C(=O)O)NC(=O)[C@H](CO)NC(=O)[C@H](CC(=O)O)NC(=O)[C@H](CC(C)C)NC(=O)[C@](C)(Cc1ccccc1)NC(=O)[C@H](CCCCN)NC(=O)[C@H](CO)NC(=O)[C@@H](NC(=O)[C@H](CC(=O)O)NC(=O)[C@H](CO)NC(=O)[C@@H](NC(=O)[C@H](Cc1ccccc1)NC(=O)[C@@H](NC(=O)CNC(=O)[C@H](CCC(N)=O)NC(=O)C(C)(C)NC(=O)[C@@H](N)Cc1c[nH]cn1)[C@@H](C)O)[C@@H](C)O)C(C)C)C(C)C)C(=O)N[C@@H](CCC(=O)O)C(=O)N[C@@H](C)C(=O)NC(C)(C)C(=O)NCC(=O)O
B7: Peptide 148 (peptide)
peptide: H[Aib]QGTFTSDVSK[αMeF]LDSK([AEEA-AEEA-γGlu-C18 diacid])RAQDFVRWIAE[Aib]G-OH
modifications: N-terminus assumed
SMILES: CC[C@H](C)[C@H](NC(=O)[C@H](Cc1c[nH]c2ccccc12)NC(=O)[C@H](CCCNC(=N)N)NC(=O)[C@@H](NC(=O)[C@H](Cc1ccccc1)NC(=O)[C@H](CC(=O)O)NC(=O)[C@H](CCC(N)=O)NC(=O)[C@H](C)NC(=O)[C@H](CCCNC(=N)N)NC(=O)[C@H](CCCCNC(=O)COCCOCCNC(=O)COCCOCCNC(=O)CC[C@H](NC(=O)CCCCCCCCCCCCCCCCC(=O)O)C(=O)O)NC(=O)[C@H](CO)NC(=O)[C@H](CC(=O)O)NC(=O)[C@H](CC(C)C)NC(=O)[C@](C)(Cc1ccccc1)NC(=O)[C@H](CCCCN)NC(=O)[C@H](CO)NC(=O)[C@@H](NC(=O)[C@H](CC(=O)O)NC(=O)[C@H](CO)NC(=O)[C@@H](NC(=O)[C@H](Cc1ccccc1)NC(=O)[C@@H](NC(=O)CNC(=O)[C@H](CCC(N)=O)NC(=O)C(C)(C)NC(=O)[C@@H](N)Cc1c[nH]cn1)[C@@H](C)O)[C@@H](C)O)C(C)C)C(C)C)C(=O)N[C@@H](C)C(=O)N[C@@H](CCC(=O)O)C(=O)NC(C)(C)C(=O)NCC(=O)O

biological target: human glucagon receptor (hGCGR) (human, UniProt P47871 26-477); assay: cell-based or functional assay
Sequence (P47871 26-477): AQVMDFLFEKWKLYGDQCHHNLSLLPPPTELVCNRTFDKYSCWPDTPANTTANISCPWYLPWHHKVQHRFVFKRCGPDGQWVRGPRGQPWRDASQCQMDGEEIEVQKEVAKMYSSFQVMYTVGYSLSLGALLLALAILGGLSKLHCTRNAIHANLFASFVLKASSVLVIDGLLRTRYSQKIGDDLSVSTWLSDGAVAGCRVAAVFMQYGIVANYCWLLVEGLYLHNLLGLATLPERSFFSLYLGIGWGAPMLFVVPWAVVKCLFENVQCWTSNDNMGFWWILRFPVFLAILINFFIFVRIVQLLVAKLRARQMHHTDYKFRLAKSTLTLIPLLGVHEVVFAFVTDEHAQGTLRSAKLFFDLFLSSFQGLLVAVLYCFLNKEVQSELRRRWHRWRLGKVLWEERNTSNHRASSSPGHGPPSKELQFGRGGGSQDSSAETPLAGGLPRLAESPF

Binder | hGluc-R EC50 (pM)
B1 | 108
B2 | 32.6
B3 | 702
B4 | 4590
B5 | 1630
B6 | 43.5
B7 | 568

biological target: human GLP-1 receptor (hGLP-1R) (human, UniProt P43220 24-463); assay: cell-based or functional assay

Binder | hGLP-1R EC50 (pM)
B1 | 59.4
B2 | 19.1
B3 | 45.2
B4 | 22.6
B5 | 24.6
B6 | 15.3
B7 | 40.2

From patent US20230357348A1 (AstraZeneca / MedImmune, published 2023)
